These are literature values, as cited in US20170319567A1, “Use of CCR3-Inhibitors” (Alkahest, Inc., priority 2013, published 2017).

The subject of this series is eosinophils. As to conditions: EoE patients, anti IL-5 therapy.

B1: Mepolizumab: anti IL-5 antibody (antibody, chains of the INN, looked up, V domains shown)
VH: QVTLRESGPALVKPTQTLTLTCTVSGFSLTSYSVHWVRQPPGKGLEWLGVIWASGGTDYNSALMSRLSISKDTSRNQVVLTMTNMDPVDTATYYCARDPPSSLLRLDYWGRGTPVTVSS
VL: DIVMTQSPDSLAVSLGERATINCKSSQSLLNSGNQKNYLAWYQQKPGQPPKLLIYGASTRESGVPDRFSGSGSGTDFTLTISSLQAEDVAVYYCQNVHSFPFTFGGGTKLEIK
B1: the “lowering of peripheral eosinophils” value is 5 fold and the “reduction in biopsy eosinophils” value is recorded as 2 fold.
